The source of these data is US20070004634A1 (published 2007).

The target of assay [1] is T1, human insulin receptor (HIR) (human, UniProt P06213-2 28-1370, limits assumed).
T1 construct: detergent-solubilized receptor
Kind of assay: 125I-insulin competition, solubilized HIR.

Assay [2] concerns the target T2, His-tagged soluble recombinant human IGF-IR (srhIGF-1R-his) (human, UniProt P08069 31-935).
T2 construct: extracellular domain; Bought construct; not shown: His tag
Briefly: ALPHAScreen competition against b-hIGF-1 on srhIGF-1R-his.

Assay [3] has as its target T3, IGF-1R on cells (MCF-7, MiaPaCa, FDC-P2 cells expressing human IGF-1R) (human, UniProt P08069 31-1367). Kind of assay: cell-based or functional assay.
The target of assay [4] is T3, IGF-1R on cells (MCF-7, MiaPaCa, FDC-P2 …). Briefly: cell-based or functional assay. This is another data set of the same source.
Assay [5] deals with T2, His-tagged soluble recombinant human …. Kind of assay: ALPHAScreen competition against b-hIGF-1 on srhIGF-1R-his. This is another data set of the same source. Background: In Alpha technology, singlet oxygen from a donor bead excites a nearby acceptor bead.
For assay [6], the target named is soluble human insulin mini-receptor (mIR) (human, UniProt P06213-2 28-746, limits assumed). Kind of assay: FP vs FITC-RP9 on mIR.
The target of assay [7] is T3, IGF-1R on cells (MCF-7, MiaPaCa, FDC-P2 …). Briefly: cell-based or functional assay. This is another data set of the same source.
The target in assay [8] is T2, His-tagged soluble recombinant human …. Briefly: ALPHAScreen competition against b-hIGF-1 on srhIGF-1R-his. This is another data set of the same source.

By Kd is commonly meant the free concentration of one partner at which half of the binding sites on the other are occupied at equilibrium, for simple one-to-one binding. A low value points to higher affinity. Broadly, the IC50 is the point on the concentration scale where inhibition reaches its midpoint.

Read-outs that look alike come from different tables or passages of the source.

T1 sequence (P06213 other isoform, or with tags, fused parts or gaps limits assumed): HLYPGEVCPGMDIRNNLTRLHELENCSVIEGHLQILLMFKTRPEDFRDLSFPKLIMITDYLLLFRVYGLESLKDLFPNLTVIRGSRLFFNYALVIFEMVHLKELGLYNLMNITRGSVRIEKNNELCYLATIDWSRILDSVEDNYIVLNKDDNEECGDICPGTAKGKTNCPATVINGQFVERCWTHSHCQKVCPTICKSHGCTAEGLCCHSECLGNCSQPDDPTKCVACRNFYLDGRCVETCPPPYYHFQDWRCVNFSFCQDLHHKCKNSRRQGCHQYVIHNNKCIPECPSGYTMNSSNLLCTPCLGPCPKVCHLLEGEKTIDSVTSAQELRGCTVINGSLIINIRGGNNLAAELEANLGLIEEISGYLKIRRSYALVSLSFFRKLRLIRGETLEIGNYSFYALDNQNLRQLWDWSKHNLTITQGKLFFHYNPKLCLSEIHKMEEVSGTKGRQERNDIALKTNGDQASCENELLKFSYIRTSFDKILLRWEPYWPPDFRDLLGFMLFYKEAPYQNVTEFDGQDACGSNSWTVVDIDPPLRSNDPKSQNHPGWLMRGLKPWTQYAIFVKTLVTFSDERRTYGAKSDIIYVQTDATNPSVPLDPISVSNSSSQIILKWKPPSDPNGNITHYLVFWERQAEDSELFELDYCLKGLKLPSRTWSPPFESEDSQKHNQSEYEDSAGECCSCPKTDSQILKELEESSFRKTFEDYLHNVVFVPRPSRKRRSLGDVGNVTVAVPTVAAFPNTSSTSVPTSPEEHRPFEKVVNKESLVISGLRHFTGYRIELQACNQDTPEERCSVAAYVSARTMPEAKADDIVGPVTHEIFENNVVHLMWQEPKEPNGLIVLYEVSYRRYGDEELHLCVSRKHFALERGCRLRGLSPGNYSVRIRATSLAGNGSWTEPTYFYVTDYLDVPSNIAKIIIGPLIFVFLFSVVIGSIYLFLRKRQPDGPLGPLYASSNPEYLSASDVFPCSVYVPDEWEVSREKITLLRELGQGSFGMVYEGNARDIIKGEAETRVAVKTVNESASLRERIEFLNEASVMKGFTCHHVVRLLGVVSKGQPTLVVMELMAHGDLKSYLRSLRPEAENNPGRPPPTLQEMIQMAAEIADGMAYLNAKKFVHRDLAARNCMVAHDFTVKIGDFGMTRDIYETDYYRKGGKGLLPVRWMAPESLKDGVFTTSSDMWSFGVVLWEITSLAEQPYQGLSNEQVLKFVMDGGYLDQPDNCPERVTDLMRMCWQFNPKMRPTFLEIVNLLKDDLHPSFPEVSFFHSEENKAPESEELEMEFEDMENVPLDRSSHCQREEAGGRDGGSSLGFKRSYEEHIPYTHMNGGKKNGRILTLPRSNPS

Regarding RWPNFYGYFESLLTHFS [S257], in assay [1], the Kd came out at 1400 nM.

B1: D112-12-RP30-IGF (peptide)
chain: ADYKDCWARPCGDAANFYDWFVQQASKKGGSGGSGGSGGSSFYSCLESLVNGGAERSDGQWEGCRAAAGAPVPYPDPLEPRPG
Take B1: the half-inhibitory concentration (IC50) in assay [2] and in assay [5] was 170 nM in each case. Further, the “Cellular EC50 (M), MiaPaCa cell proliferation” value in assay [3] was found to be 2.2e-06 M. Further, in assay [4], the “Cellular EC50 (M), MCF-7 cell proliferation” value turned out to be 2.5e-07 M.

Take FHENFYDWFVRQVSKK [H2C]: it took 770 nM to reach half-maximal inhibition in assay [6] (IC50).

In the case of GIISQSCPESFYDWFAGQVSDPWWCW [G33], the “Cellular EC50 (M), FDC-P2 cell proliferation” value in assay [7] was found to be 2e-06 M. For the same molecule, in assay [4], the “Cellular EC50 (M), MCF-7 cell proliferation” value was 3e-07 M. The IC50 in assay [5] and in assay [8] was 600 nM throughout.
